From patent US8809529B2, “Imidazo[1,2-α]pyrazine derivatives” (Promega Corporation, priority 2010, dated 2014)

Key:
[1] = Km of L27V reversion variants for native coelenterazine; format: biochemical
Method: Relative activities <1 indicate the reversion is detrimental compared to the residue at that site in the L27V variant. Relative activities >1 indicate the reversion is favorable for activity compared to the residue at that site in the L27V variant. Some additional data on these mutants indicated the following: 166K, 54F, 54A and L27V were tested for thermal stability. The T1/2 60° C. for 166K, 54F, and 54A were 87, 74, and 33%, respectively, indicating these substitutions cause a reduction in thermal stability. […] This indicates higher substrate affinity for L27V, particularly for the position 54 substitutions.

[2] = Exposure of L27V to 3 M urea; format: physicochemical; details: 30 min at 25° C.
Method: A 0.31 mg/mL stock of purified L27V variant was diluted 100,000-fold into buffer (PBS+1 mM DTT+0.005% IGEPAL) and incubated with 3 M urea for 30 min at 25° C. and then mixed 1:1 (50 μL+50 μL) with an assay reagent containing 100 μM PBI-3939 (previously described). The reactions were read on a TECAN® INFINITE® F500 luminometer as described previously (for 100 min; 1 min read intervals) (FIG. 89).

[3] = Brightness of purified OgLuc variant compared to firefly luciferase; format: biochemical
Method: The 9B8 OgLuc variant was overexpressed and purified as described in Example 33. Reactions between diluted enzyme and substrate were performed using the following 2× buffer/assay reagent: 100 mM MES pH 6.0, 1 mM CDTA, 150 mM KCl, 35 mM thiourea, 2 mM DTT, 0.25% TERGITOL® NP-9 (v/v), 0.025% MAZU® DF 204, 10 mg/mL […], and 20 μM PBI-3939. The final assay concentrations of purified enzyme and substrate were 0.5 pM and […], respectively. In parallel, reactions between diluted purified firefly luciferase (i.e., QUANTILUM® Recombinant Luciferase (Promega Corp.)) and luciferin were analyzed. The assay buffer/reagent for the firefly luciferase reaction was BRIGHT-GLO™, and the final assay concentrations were 0.5 pM enzyme and 500 μM luciferin. As the buffers/reagents for each reaction were known to provide “glow” kinetics, a 15 min time point was used to collect luminescence data.

[4] = test system: cAMP response element (CRE); experiment: CRE transcriptional reporter, forward transfection, HEK293 cells; format: cell-based, human; set-up: Response: scale not given here; details: for baseline: 10 nM FSK; for baseline / RLU (10 μM FSK): 3 h
Method: HEK293 cells were plated at 15,000 cells/well in six 96-well tissue culture plates. Cells were grown in 100 μL of DMEM+10% FBS+1× non-essential amino acids (NEAA) and incubated overnight at 37° C. The cells were transiently transfected with either 10 ng or 100 ng plasmid DNA/well of pGL4.29 9B8 opt, pGL4.29 9B8 opt-P, or pGL4.29. Plasmid DNA was mixed with 850 μL of OPTI-MEM® (Invitrogen) and 32.4 μL of FUGENE® HD transfection reagent (Promega Corp.) and incubated at room temperature for 10 min. Eight μL of the transfection/reporter DNA mixture was added to the appropriate wells (2 constructs/plate). Cells were incubated for 4 hrs at 37° C. The medium was replaced with OPTI-MEM®+0.5% dialyzed FBS+1×NEAA+1× sodium pyruvate+1× Penn-Strep and incubated overnight at 37° C.
A lytic reagent containing 100 mM MES pH 6.1, 1 mM CDTA, 150 mM KCl, 35 mM thiourea, 2 mM DTT, 0.25% TERGITOL® NP-9 (v/v), 0.025% MAZU® DF 204, and 20 μM PBI-3939 was added to the cells containing pGL4.29 9B8 opt or pGL4.29 9B8 opt-P and allowed to incubated for 10 min at room temperature (100 μL lytic reagent added to 100 μL cells). ONE-GLO™ assay reagent (Promega Corp.) was added to cells containing pGL4.29 and used according to the manufacturer's protocol (100 μL reagent added to 100 μL cells). Luminescence was measured on a GLOMAX® Luminometer.

[5] = test system: antioxidant response element (ARE); experiment: ARE transcriptional reporter, reverse transfection, HEK293 cells; format: cell-based, human; details: for baseline: 24 h, 100 ng DNA
Method: HEK293 cells were trypsinized (T75 flask, 3 mL trypsin) and resuspended in […] (approximately 8.9×10^6 total cells) in medium containing DMEM+10% FBS+1×NEAA. Each transcriptional reporter was prepared for transfection by mixing 1.2 mL OPTI-MEM®, 12 μL transcription reporter DNA (100 ng) and 36 μL FUGENE® HD transfection reagent together and incubated at room temperature for 35 min. Following incubation, 624 μL of the transfection/reporter DNA mixture was added to 12 mL of cell suspension and mixed by inversion. After mixing, 100 μL of the cell/DNA mixture was added to wells of a 96-well plate (2 constructs/plate). The cells were incubated at 37° C. for 22 hrs. Tert-butylhydroquinone (a Nrf2 stabilizer; tBHQ; 1 μM (“baseline”) or 20 μM) or sulphoraphane, (an organosulfer antioxidant known to activate Nrf2; 1 μM (“baseline”) or 20 μM) in OPTI-MEM® was added to each well and incubated at 37° C. for 24 hrs. Cells were lysed with 100 μL lytic reagent as described above for the forward transfection. Luminescence was measured on a GLOMAX® Luminometer.

[6] = test system: HEK293 cells; experiment: Stability of 9B8 and V2 in HEK293 cells; format: cell-based, human; details: HEK293 cells lysed in assay reagent, 20 μM PBI-3939
Method: The variants 9B8 and V2 (9B8+K33N+T39T+K43R+Y68D) were also screened in HEK293 cells to determine their stability. The variants were cloned into pF4Ag and transfected into HEK293 cells (15,000 cells/well) as previously described. After transfection, the cells were lysed in assay reagent (as previously described; no PBI-3939), and luminescence measured using the assay reagent with 20 μM PBI-3939. […] This is consistent with the half-life seen for these variants in E. coli (Table 26).

B1: L27V: 9B8 opt+K33N variant with L27V, T39T, K43R, Y68D (protein)
chain: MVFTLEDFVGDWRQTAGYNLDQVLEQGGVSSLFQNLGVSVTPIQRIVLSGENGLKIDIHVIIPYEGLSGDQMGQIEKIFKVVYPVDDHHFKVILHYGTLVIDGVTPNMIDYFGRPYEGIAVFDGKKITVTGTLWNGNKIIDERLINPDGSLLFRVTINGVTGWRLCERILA
For B1, the Km [1] was 16 µM and the “reduction of activity by 3M urea” value [2] was “approximately 50%”.

B2: 9B8 opt: codon optimized version of the 9B8 variant (protein)
chain: MVFTLEDFVGDWRQTAGYNLDQVLEQGGLSSLFQKLGVSVTPIQKIVLSGENGLKIDIHVIIPYEGLSGYQMGQIEKIFKVVYPVDDHHFKVILHYGTLVIDGVTPNMIDYFGRPYEGIAVFDGKKITVTGTLWNGNKIIDERLINPDGSLLFRVTINGVTGWRLCERILA
In the case of B2, the “brightness relative to QUANTILUM Recombinant Luciferase with BRIGHT-GLO” value [3] is reported as “approximately 8 fold”, the luminescence ([3]; 0.5 pM enzyme, 15 min, 9B8 opt with PBI-3939, QUANTILUM with BRIGHT-GLO) is reported as 19,200 RLU and the Response ([4]; 10 ng DNA for transfection) is reported as 67. For the same molecule, the baseline ([4]; 10 ng DNA for transfection) was 192810, the “RLU (10 μM FSK)” value ([4]; 10 ng DNA for transfection) was 12,926,465 RLU and the Response ([4]; 100 ng DNA for transfection) was 34. For the same molecule, the baseline ([4]; 100 ng DNA for transfection) was 3,078,418, the “RLU (10 μM FSK)” value ([4]; 100 ng DNA for transfection) was 104,687,723 RLU and the baseline ([5]; 1 μM sulphoraphane) was 15,600,000. For the same molecule, the baseline ([5]; 1 μM tBHQ) was 15,100,000, the Response ([5]; sulphoraphane) was 5.8 and the Response ([5]; tBHQ) was 8.

B3: 9B8: IV variant with Q18L, F68Y, L72Q, M75K; in Tables 12, 22, 23, 26, 27 “9B8” stands for 9B8 opt (protein)
chain: MVFTLEDFVGDWRQTAGYNLDQVLEQGGLSSLFQKLGVSVTPIQKIVLSGENGLKIDIHVIIPYEGLSGYQMGQIEKIFKVVYPVDDHHFKVILHYGTLVIDGVTPNMIDYFGRPYEGIAVFDGKKITVTGTLWNGNKIIDERLINPDGSLLFRVTINGVTGWRLCERILA
Work on B3 yielded a half-life [6] of 5.2 h.
